Experimental data from the supplement of paper PMC10899765.

System: MCF10A
Test: nucleolar rRNA biogenesis percent inhibition (5-EU; siNT 0%, siPOLR1A 100%); higher = stronger inhibition of nucleolar rRNA biogenesis
Settings: 20 nM; 72 h
Protocol: (§1)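 Primary screen hits (microRNA mimics) were re-picked and rescreened for nucleolar number in MCF10A cells (hitpick validation; percent effect relative to the siNT and siNOL11/siKIF11 controls). A secondary screen measured nucleolar rRNA biogenesis inhibition: after 72 h of transfection at 20 nM, cells were labelled 1 h with 1 mM 5-EU and nucleolar 5-EU signal was quantified, normalised to siNT (0%) and siPOLR1A (100%). Means are over n=5 (MCF10A) or n=2 (RPE-1, HeLa) biological replicates.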

| Sequence | nucleolar rRNA biogenesis percent inhibition [%] |
| --- | --- |
| CAAUCAGCAAGUAUACUGCCCU [hsa-miR-34a-3p] | 70.2 |
| AGGCGGAGACUUGGGCAAUUG [hsa-miR-25-5p] | 75.3 |
| ACCUUGGCUCUAGACUGCUUACU [hsa-miR-212-5p] | 118 |
| AGUUUUGCAGGUUUGCAUCCAGC [hsa-miR-19b-1-5p] | 30.7 |
| GGCCAGCCACCAGGAGGGCUG [hsa-miR-3194-5p] | 22.9 |
| ACUCGGCGUGGCGUCGGUCGUG [hsa-miR-1307-3p] | 100 |
| UGGUUCUAGACUUGCCAACUA [hsa-miR-182-3p] | 64.6 |
| UGAAGGUCUACUGUGUGCCAGG [hsa-miR-493-3p] | 69.3 |
| UGUCCUCUAGGGCCUGCAGUCU [hsa-miR-3909] | 42.9 |
| UAUGGCACUGGUAGAAUUCACU [hsa-miR-183-5p] | 33.5 |
| AGCUUUUGGGAAUUCAGGUAGU [hsa-miR-3140-3p] | 6.44 |
| UGGCAGUGUCUUAGCUGGUUGU [hsa-miR-34a-5p] | 72.2 |
| AAAGGAGGAAAUAGGCAGGCCA [hsa-miR-3173-3p] | 86.5 |
| CAGGUCGUCUUGCAGGGCUUCU [hsa-miR-431-3p] | 83.8 |
| CGGCGGGGACGGCGAUUGGUC [hsa-miR-1908-5p] | 90.6 |
| AAAAGGCGGGAGAAGCCCCA [hsa-miR-4484] | 69.6 |
| AAGGAGCUUACAAUCUAGCUGGG [hsa-miR-708-5p] | -26.3 |
| CUCUCCCUCUUUACCCACUAG [hsa-miR-6867-3p] | 71.1 |

| Sequence | nucleolar rRNA biogenesis percent inhibition [%] |
| --- | --- |
| AGGAGCAGUGCCGGCCAAGGCGCC [hsa-miR-6081] | 57.3 |
| UUUGCAGUAACAGGUGUGAGCA [hsa-miR-6516-5p] | 48.6 |
| UCUCUGGGCCUGUGUCUUAGGC [hsa-miR-330-5p] | 65.2 |
| AGAUCAGAAGGUGAUUGUGGCU [hsa-miR-383-5p] | 0.973 |
| UAGGAGCUCAACAGAUGCCUGUU [hsa-miR-3139] | 5.86 |
| CAAAGGUAUUUGUGGUUUUUG [hsa-miR-548m] | 4.11 |
| UGGCAAGGAAAGAAGAGGAUCA [hsa-miR-6809-5p] | 69.8 |
| AGAGCAGAAGGAUGAGAU [hsa-miR-4468] | 102 |
| AGUGUGGCUUUCUUAGAGC [hsa-miR-644a] | 101 |
| ACUGGGGAGCAGAAGGAGAACC [hsa-miR-4667-5p] | 81.2 |
| AAAGGCAUAAAACCAAGACA [hsa-miR-3910] | 12.7 |
| CCGUCGCCGCCACCCGAGCCG [hsa-miR-1181] | 86.9 |
| GAGGGCGGGUGGAGGAGGA [hsa-miR-3141] | 51.1 |
| AGAAAGGGUGGCAAUACCUCUU [hsa-miR-5681a] | 76.4 |
| CAUCUGGCAUCCGUCACACAGA [hsa-miR-3126-3p] | 22.1 |
| CUGGCGGCUGUGUCUUCACAG [hsa-miR-6770-3p] | -8.82 |
| UGCCUGUCUACACUUGCUGUGC [hsa-miR-214-5p] | -8.48 |

System: HeLa
Test: as above
Settings: 20 nM; 72 h
Protocol: as §1

| Sequence | nucleolar rRNA biogenesis percent inhibition [%] |
| --- | --- |
| UAAGGCACGCGGUGAAUGCC [hsa-miR-124-3p] | 91.7 |
| CUGCCAAUUCCAUAGGUCACAG [hsa-miR-192-3p] | 37.7 |
| AAGGAGCUCACAGUCUAUUGAG [hsa-miR-28-5p] | 60.9 |
| AGAAGGCACUAUGAGAUUUAGA [hsa-miR-605-3p] | 23.1 |
| GUUCUCCCAACGUAAGCCCAGC [hsa-miR-629-3p] | 55.5 |
| CUCUUGAGGGAAGCACUUUCUGU [hsa-miR-526b-5p] | 81.5 |
| CUUAUGCAAGAUUCCCUUCUAC [hsa-miR-491-3p] | -3.33 |
| CAAUCAGCAAGUAUACUGCCCU [hsa-miR-34a-3p] | -6.79 |
| AGGCGGAGACUUGGGCAAUUG [hsa-miR-25-5p] | 86.7 |
| ACCUUGGCUCUAGACUGCUUACU [hsa-miR-212-5p] | 95.9 |
| AGUUUUGCAGGUUUGCAUCCAGC [hsa-miR-19b-1-5p] | 92.7 |
| GGCCAGCCACCAGGAGGGCUG [hsa-miR-3194-5p] | -11.3 |
| ACUCGGCGUGGCGUCGGUCGUG [hsa-miR-1307-3p] | 40.2 |
| UGGUUCUAGACUUGCCAACUA [hsa-miR-182-3p] | 9.57 |
| UGAAGGUCUACUGUGUGCCAGG [hsa-miR-493-3p] | -1.09 |
| UGUCCUCUAGGGCCUGCAGUCU [hsa-miR-3909] | 74.5 |
| UAUGGCACUGGUAGAAUUCACU [hsa-miR-183-5p] | 21.8 |
| AGCUUUUGGGAAUUCAGGUAGU [hsa-miR-3140-3p] | 76.4 |
| UGGCAGUGUCUUAGCUGGUUGU [hsa-miR-34a-5p] | 37.7 |
| AAAGGAGGAAAUAGGCAGGCCA [hsa-miR-3173-3p] | 25.3 |
| CAGGUCGUCUUGCAGGGCUUCU [hsa-miR-431-3p] | 115 |
| CGGCGGGGACGGCGAUUGGUC [hsa-miR-1908-5p] | 68.5 |
| AAGGAGCUUACAAUCUAGCUGGG [hsa-miR-708-5p] | 48.6 |
| UCUCUGGGCCUGUGUCUUAGGC [hsa-miR-330-5p] | 66.1 |
| AGAUCAGAAGGUGAUUGUGGCU [hsa-miR-383-5p] | 129 |
| CAUCUGGCAUCCGUCACACAGA [hsa-miR-3126-3p] | 4.46 |
| UGCCUGUCUACACUUGCUGUGC [hsa-miR-214-5p] | 32 |

System: MCF10A
Test: percent viability (nuclei count relative to siNT); higher = more viable cells
Settings: 20 nM; 72 h
Protocol: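 After 72 h, cells were fixed and stained with Hoechst and anti-fibrillarin, and nucleoli per nucleus were counted with CellProfiler. Values are plate-adjusted percent effect for the one-nucleolus and 5+ nucleoli phenotypes, normalised to siNT (0%) and to the positive controls siNOL11 or siKIF11 (100%), as the mean of biological triplicates. Percent viability is the nuclei count relative to siNT.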

| Sequence | percent viability [%] |
| --- | --- |
| UAAGGCACGCGGUGAAUGCC [hsa-miR-124-3p] | 39.1 |
| CUGCCAAUUCCAUAGGUCACAG [hsa-miR-192-3p] | 62.7 |
| AAGGAGCUCACAGUCUAUUGAG [hsa-miR-28-5p] | 39 |
| AGAAGGCACUAUGAGAUUUAGA [hsa-miR-605-3p] | 43.9 |
| GUUCUCCCAACGUAAGCCCAGC [hsa-miR-629-3p] | 38.5 |
| CUCUUGAGGGAAGCACUUUCUGU [hsa-miR-526b-5p] | 28.7 |
| CUUAUGCAAGAUUCCCUUCUAC [hsa-miR-491-3p] | 15.5 |
| CAAUCAGCAAGUAUACUGCCCU [hsa-miR-34a-3p] | 25.6 |
| AGGCGGAGACUUGGGCAAUUG [hsa-miR-25-5p] | 29.4 |
| ACCUUGGCUCUAGACUGCUUACU [hsa-miR-212-5p] | 27.9 |
| AGUUUUGCAGGUUUGCAUCCAGC [hsa-miR-19b-1-5p] | 26.2 |
| GGCCAGCCACCAGGAGGGCUG [hsa-miR-3194-5p] | 18.6 |
| ACUCGGCGUGGCGUCGGUCGUG [hsa-miR-1307-3p] | 39.9 |
| UGGUUCUAGACUUGCCAACUA [hsa-miR-182-3p] | 17.5 |
| UGAAGGUCUACUGUGUGCCAGG [hsa-miR-493-3p] | 28 |
